Measurements taken from the supplement of paper PMC9112550, “Optimization of the antimicrobial peptide Bac7 by deep mutational scanning” (BMC Biology, 2022).

System: Escherichia coli TOP10
Assay: shrunken log2 fold change of peptide-encoding DNA abundance (4.5 h post-induction vs induction); higher = less antimicrobial activity (less host growth inhibition)
Conditions: time post-induction: 4.5 h; library: site-saturation at positions 5, 18, 19, 20
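Also: peptides expressed intracellularly from a pBAD plasmid library in pooled LB shake-flask culture, induced with 0.3% L-arabinose, DNA abundance read by NGS, three biological replicates, DESeq2 with apeglm shrinkage.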

Sequence | shrunken log2 fold change
RRIRDRPPRLPRPRPRPFALPRP | 0.206
RRIRKRPPRLPRPRPRPCKYPRP | 0.0409
RRIRYRPPRLPRPRPRPNRYPRP | -0.499
RRIRTRPPRLPRPRPRPCNMPRP | -0.154
RRIRYRPPRLPRPRPRPTAWPRP | -0.011
RRIRPRPPRLPRPRPRPYKCPRP | -0.0297
RRIRLRPPRLPRPRPRPWQAPRP | 0.226
RRIRCRPPRLPRPRPRPWMCPRP | -0.851
RRIRCRPPRLPRPRPRPLANPRP | 0.452
RRIRERPPRLPRPRPRPQKAPRP | -0.0836
RRIRMRPPRLPRPRPRPDPYPRP | -0.0396
RRIRFRPPRLPRPRPRPDAEPRP | 0.373
RRIRTRPPRLPRPRPRPDRAPRP | -0.438
RRIRLRPPRLPRPRPRPRIDPRP | -0.0317
RRIRYRPPRLPRPRPRPLWDPRP | -0.717
RRIRDRPPRLPRPRPRPICNPRP | 0.324
RRIRERPPRLPRPRPRPIDCPRP | -0.409
RRIRQRPPRLPRPRPRPAHEPRP | 0.185
RRIRWRPPRLPRPRPRPHQFPRP | -0.843
RRIRMRPPRLPRPRPRPGVRPRP | 1.42
RRIRKRPPRLPRPRPRPNENPRP | 0.304
RRIRARPPRLPRPRPRPWARPRP | 0.0181
RRIRLRPPRLPRPRPRPGLPPRP | 0.576
RRIRDRPPRLPRPRPRPVFSPRP | 0.111
RRIRFRPPRLPRPRPRPRPAPRP | 0.807

Sequence | shrunken log2 fold change
RRIRWRPPRLPRPRPRPAMGPRP | 0.161
RRIRFRPPRLPRPRPRPRNKPRP | -0.174
RRIRCRPPRLPRPRPRPGHSPRP | -0.347
RRIRCRPPRLPRPRPRPPNFPRP | -0.0525
RRIRWRPPRLPRPRPRPHGIPRP | 0.00741
RRIRQRPPRLPRPRPRPPLNPRP | 0.633
RRIRERPPRLPRPRPRPPNEPRP | 0.28
RRIRFRPPRLPRPRPRPCSDPRP | -0.119
RRIRRRPPRLPRPRPRPEVTPRP | 0.0976
RRIRMRPPRLPRPRPRPTVTPRP | 0.307
RRIRRRPPRLPRPRPRPWNMPRP | -0.479
RRIRIRPPRLPRPRPRPSRNPRP | -0.124
RRIRRRPPRLPRPRPRPDLLPRP | 0.0733
RRIRVRPPRLPRPRPRPHETPRP | -0.0244
RRIRPRPPRLPRPRPRPKMYPRP | -0.938
RRIRARPPRLPRPRPRPLTDPRP | 0.163
RRIRIRPPRLPRPRPRPEFVPRP | -0.0754
RRIRQRPPRLPRPRPRPLHGPRP | 0.0407
RRIRDRPPRLPRPRPRPAIEPRP | 0.0117
RRIRGRPPRLPRPRPRPFIPPRP | -0.429
RRIRKRPPRLPRPRPRPYEFPRP | 0.101
RRIRSRPPRLPRPRPRPVMEPRP | -0.0868
RRIRWRPPRLPRPRPRPGDCPRP | 0.00839
RRIRKRPPRLPRPRPRPSPIPRP | 0.0333
RRIRQRPPRLPRPRPRPINPPRP | -0.357

Sequence | shrunken log2 fold change
RRIRWRPPRLPRPRPRPSIKPRP | -0.419
RRIRFRPPRLPRPRPRPPQPPRP | 0.795
RRIRIRPPRLPRPRPRPHPKPRP | -0.258
RRIRMRPPRLPRPRPRPDAIPRP | 0.164
RRIRRRPPRLPRPRPRPHLFPRP | 0.0328
RRIRWRPPRLPRPRPRPWILPRP | -0.19
RRIRDRPPRLPRPRPRPIMKPRP | -0.195
RRIRRRPPRLPRPRPRPKRMPRP | 0.514
RRIRWRPPRLPRPRPRPLTIPRP | -0.162
RRIRHRPPRLPRPRPRPIFDPRP | -0.0378
RRIRHRPPRLPRPRPRPPIDPRP | 0.065
RRIRIRPPRLPRPRPRPQDIPRP | -0.461
RRIRSRPPRLPRPRPRPHTYPRP | -0.265
RRIRSRPPRLPRPRPRPNDMPRP | -0.193
RRIRFRPPRLPRPRPRPWCAPRP | 0.185
RRIRTRPPRLPRPRPRPHDPPRP | -0.283
RRIRYRPPRLPRPRPRPIGLPRP | -0.0167
RRIRSRPPRLPRPRPRPFAIPRP | -0.638
RRIRDRPPRLPRPRPRPLEWPRP | 0.421
RRIRCRPPRLPRPRPRPKFVPRP | -0.155
RRIRLRPPRLPRPRPRPMSKPRP | 0.0198
RRIRARPPRLPRPRPRPHCDPRP | 0.214
RRIRNRPPRLPRPRPRPTTQPRP | -0.222
RRIRWRPPRLPRPRPRPCTMPRP | -0.00405
RRIRRRPPRLPRPRPRPSMNPRP | -0.467

Sequence | shrunken log2 fold change
RRIRRRPPRLPRPRPRPCAHPRP | 0.067
RRIRMRPPRLPRPRPRPNVHPRP | -0.333
RRIRKRPPRLPRPRPRPSFPPRP | -0.0425
RRIRCRPPRLPRPRPRPWVCPRP | 0.0107
RRIRTRPPRLPRPRPRPELVPRP | 0.0224
RRIRKRPPRLPRPRPRPWDDPRP | 0.0248
RRIRTRPPRLPRPRPRPHSDPRP | -0.00801
RRIRYRPPRLPRPRPRPQRDPRP | -0.256
RRIRKRPPRLPRPRPRPNGNPRP | -0.146
RRIRNRPPRLPRPRPRPPFHPRP | -0.17
RRIRTRPPRLPRPRPRPHWKPRP | 0.00556
RRIRARPPRLPRPRPRPNVVPRP | -0.0083
RRIRERPPRLPRPRPRPISSPRP | -0.403
RRIRHRPPRLPRPRPRPQLFPRP | -0.172
RRIRHRPPRLPRPRPRPYKGPRP | -0.33
RRIRNRPPRLPRPRPRPHCGPRP | -0.225
RRIRARPPRLPRPRPRPSGQPRP | 0.251
RRIRLRPPRLPRPRPRPRNKPRP | -0.156
RRIRKRPPRLPRPRPRPGQNPRP | 0.0264
RRIRVRPPRLPRPRPRPRMCPRP | -0.35
RRIRCRPPRLPRPRPRPCDDPRP | 0.0119
RRIRNRPPRLPRPRPRPRLFPRP | 0.0322
RRIRLRPPRLPRPRPRPNYIPRP | -0.301
RRIRNRPPRLPRPRPRPKLMPRP | -0.109
RRIRFRPPRLPRPRPRPKQVPRP | -0.176

Sequence | shrunken log2 fold change
RRIRPRPPRLPRPRPRPTKVPRP | -0.0777
RRIRARPPRLPRPRPRPSDGPRP | 0.0321
RRIRYRPPRLPRPRPRPFKCPRP | -0.135
RRIRVRPPRLPRPRPRPNFVPRP | -0.491
RRIRQRPPRLPRPRPRPRIEPRP | 0.111
RRIRIRPPRLPRPRPRPDIGPRP | -0.251
RRIRKRPPRLPRPRPRPYSMPRP | -0.39
RRIRLRPPRLPRPRPRPIWMPRP | 0.0146
RRIRLRPPRLPRPRPRPCTNPRP | -0.094
RRIRLRPPRLPRPRPRPLFTPRP | -0.232
RRIRCRPPRLPRPRPRPDEPPRP | 0.189
RRIRGRPPRLPRPRPRPHPLPRP | 0.101
RRIRPRPPRLPRPRPRPTGGPRP | 0.392
RRIRCRPPRLPRPRPRPRLYPRP | -0.307
RRIRKRPPRLPRPRPRPLMPPRP | 0.232
RRIRNRPPRLPRPRPRPSTLPRP | -0.474
RRIRNRPPRLPRPRPRPNWIPRP | -0.0612
RRIRARPPRLPRPRPRPVKMPRP | 0.163
RRIRRRPPRLPRPRPRPEAFPRP | 0.842
RRIRVRPPRLPRPRPRPTQDPRP | 0.386
RRIRARPPRLPRPRPRPALCPRP | 0.637
RRIRDRPPRLPRPRPRPPPQPRP | 0.775
RRIRSRPPRLPRPRPRPDIRPRP | -0.0108
RRIRYRPPRLPRPRPRPLDKPRP | -0.0449
RRIRPRPPRLPRPRPRPQPDPRP | -0.0815

Sequence | shrunken log2 fold change
RRIRVRPPRLPRPRPRPVSHPRP | 0.173
RRIRFRPPRLPRPRPRPIQQPRP | 0.056
RRIRARPPRLPRPRPRPMEVPRP | -0.0122
RRIRRRPPRLPRPRPRPLVEPRP | 0.116
RRIRIRPPRLPRPRPRPQGLPRP | 0.0413
RRIRKRPPRLPRPRPRPDCVPRP | 0.342
RRIRFRPPRLPRPRPRPTSEPRP | 0.0114
RRIRNRPPRLPRPRPRPRIVPRP | -0.191
RRIRHRPPRLPRPRPRPFKNPRP | -0.0803
RRIRRRPPRLPRPRPRPYPSPRP | -0.305
RRIRWRPPRLPRPRPRPEVNPRP | 0.321
RRIRRRPPRLPRPRPRPFPYPRP | -0.28
RRIRGRPPRLPRPRPRPFHTPRP | -0.161
RRIRMRPPRLPRPRPRPNHGPRP | -0.00135
RRIRWRPPRLPRPRPRPESTPRP | 1.17
RRIRRRPPRLPRPRPRPHKLPRP | 0.022
RRIRYRPPRLPRPRPRPQQCPRP | -0.145
RRIRRRPPRLPRPRPRPLGAPRP | 0.468
RRIRNRPPRLPRPRPRPWNSPRP | -0.281
RRIRRRPPRLPRPRPRPKYWPRP | 0.00676
RRIRTRPPRLPRPRPRPDTHPRP | -0.424
RRIRSRPPRLPRPRPRPLQIPRP | 0.0322
RRIRFRPPRLPRPRPRPTRTPRP | 0.326
RRIRFRPPRLPRPRPRPITDPRP | 0.0437
RRIRARPPRLPRPRPRPETTPRP | 1.61
